This assay has as its target Biotinylated SP16 (human) (UniProt P01009). Briefly: SPR.

In turn, “Recombinant human insulin receptor/CD220 (28-944) protein, His Tag (from UniProt P06213-2 28-944)” had a Kd of 185 nM.

As usually defined, the Kd is the equilibrium constant for the complex coming apart. Read a low Kd as a tighter complex.

These data come from doi:10.1101/2025.06.17.660082.
